Among the data in article PMC5690283 are force and force of reversible dissociation and re-association values, retold here.

The target of this assay is E-Syt2 C2B domain (within the E-syt2 C2AB construct, 343-646, C611S) (human). As to the kind of experiment: single-molecule force spectroscopy (optical tweezers); the two C2 domains stand on one chain (C2AB); N-terminus held by biotin-streptavidin on a bilayer-coated silica bead or a streptavidin-coated bead, C-terminus on a DNA handle to a polystyrene bead; pulled at 10 nm/s or held at constant trap separation; 25 mM HEPES pH 7.4, 200 mM NaCl, 100 uM Ca2+, room temperature (~23 C).

On to “E-Syt2 C2A domain (within the E-syt2 C2AB construct, 343-646, C611S) (domain or fragment)”, for which the force at which the two domains dissociate is 8 to 13 pN; the force of reversible dissociation and re-association was 11 pN.
